Assay results taken from paper PMC10470402.

Target: S. pombe HT-Gemin2 (S. pombe) (UniProt P0CU08)
Test: pull-down

Chain of S. pombe HT-Gemin2 (S. pombe) (P0CU08 whole entry): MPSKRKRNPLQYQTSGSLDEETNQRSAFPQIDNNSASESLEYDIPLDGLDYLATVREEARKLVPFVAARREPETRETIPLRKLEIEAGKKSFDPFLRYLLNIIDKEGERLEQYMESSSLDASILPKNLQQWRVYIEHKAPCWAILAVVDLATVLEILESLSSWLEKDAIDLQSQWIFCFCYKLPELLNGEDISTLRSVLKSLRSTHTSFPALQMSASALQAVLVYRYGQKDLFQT

## S. pombe SmF/SmE/SmG subcomplex, HT-tag removed (from UniProt O59734 1-78; Q9USZ3 1-84; O74966 1-77)
  percent bound: 7.4%
  percent bound (D1/D2 and F/E/G added together): 9.2%

## S. pombe SmD1/SmD2 subcomplex, HT-tag removed (from UniProt O42661 1-117; O14036 1-115)
  percent bound: 4.1%
  percent bound (D1/D2 and F/E/G added together): 15.1%
